Test results reported in patent US20130195836A1.

Biological target: human macrophage mannose receptor C type 1 (MRC1) (human) (UniProt P22897)
Assay: flow cytometry on stable pool of MRC1-transfected HT1080 cells compared to untransfected HT1080 cells

UniProt P22897, sequence (P22897 19-1456 limits assumed): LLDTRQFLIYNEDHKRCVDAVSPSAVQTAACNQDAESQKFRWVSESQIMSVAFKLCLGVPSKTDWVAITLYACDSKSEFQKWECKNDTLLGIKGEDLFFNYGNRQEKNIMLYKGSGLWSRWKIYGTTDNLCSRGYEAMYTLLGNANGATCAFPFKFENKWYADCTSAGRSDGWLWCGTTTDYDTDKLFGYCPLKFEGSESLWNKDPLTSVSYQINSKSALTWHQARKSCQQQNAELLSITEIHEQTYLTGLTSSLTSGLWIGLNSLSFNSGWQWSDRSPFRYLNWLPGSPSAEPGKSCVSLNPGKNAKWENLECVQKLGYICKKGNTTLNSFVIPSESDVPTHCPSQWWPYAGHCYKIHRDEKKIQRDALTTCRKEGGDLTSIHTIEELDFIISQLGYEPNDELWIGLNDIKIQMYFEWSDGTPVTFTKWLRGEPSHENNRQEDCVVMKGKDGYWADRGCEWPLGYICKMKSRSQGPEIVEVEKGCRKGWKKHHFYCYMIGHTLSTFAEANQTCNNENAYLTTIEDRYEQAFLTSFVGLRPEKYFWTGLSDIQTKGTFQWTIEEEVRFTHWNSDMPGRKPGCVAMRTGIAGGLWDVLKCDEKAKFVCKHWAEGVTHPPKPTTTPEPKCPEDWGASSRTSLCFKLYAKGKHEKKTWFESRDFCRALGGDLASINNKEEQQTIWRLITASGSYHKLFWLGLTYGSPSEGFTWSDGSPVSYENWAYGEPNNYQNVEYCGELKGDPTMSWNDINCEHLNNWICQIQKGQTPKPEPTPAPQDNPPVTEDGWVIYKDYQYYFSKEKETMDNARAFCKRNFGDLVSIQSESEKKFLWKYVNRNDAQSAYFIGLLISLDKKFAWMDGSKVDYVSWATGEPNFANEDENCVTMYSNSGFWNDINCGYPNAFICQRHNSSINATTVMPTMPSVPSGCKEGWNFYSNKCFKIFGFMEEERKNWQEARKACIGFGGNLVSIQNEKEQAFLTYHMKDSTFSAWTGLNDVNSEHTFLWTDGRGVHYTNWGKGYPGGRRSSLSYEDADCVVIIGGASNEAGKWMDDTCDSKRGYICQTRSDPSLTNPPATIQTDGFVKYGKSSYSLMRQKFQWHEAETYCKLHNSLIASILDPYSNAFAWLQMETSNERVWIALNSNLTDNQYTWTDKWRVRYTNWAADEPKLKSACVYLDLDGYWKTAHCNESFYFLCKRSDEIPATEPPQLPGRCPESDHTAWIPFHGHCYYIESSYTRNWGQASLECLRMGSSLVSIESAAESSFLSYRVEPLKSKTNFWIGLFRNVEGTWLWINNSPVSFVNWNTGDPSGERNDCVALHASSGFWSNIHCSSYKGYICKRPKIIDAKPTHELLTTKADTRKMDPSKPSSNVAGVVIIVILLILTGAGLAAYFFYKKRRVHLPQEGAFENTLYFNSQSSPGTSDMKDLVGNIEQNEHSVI

Work on “FITC conjugated Mouse anti-human MRC1 antibody (BD Biosciences Cat #551135)” yielded a Relative Fluorescence Intensity (RFI) above the background of 1.5 logs.
